Data on 2 proteins can be found in the PETadex activity labels (doi:10.1128/aem.02773-17).

Substrate in one data set: pNPB
Briefly: Proxy for plastic degradation [Relative activity].

Substrate in a further data set: PET
Briefly: Proxy for plastic degradation [Released monomer concentration (HPLC/LC-MS) (terephthalic acid)]. The note with it: pH 8.

B1: unnamed (protein)
chain: MPITARNTLASLLLASSALLLSGTAFAANPPGGDPDPGCQTDCNYQRGPDPTDAYLEAASGPYTVSTIRVSSLVPGFGGGTIHYPTNAGGGKMAGIVVIPGYLSFESSIEWWGPRLASHGFVVMTIDTNTIYDQPSQRRDQIEAALQYLVNQSNSSSSPISGMVDSSRLAAVGWSMGGGGTLQLAADGGIKAAIALAPWNSSINDFNRIQVPTLIFACQLDAIAPVALHASPFYNRIPNTTPKAFFEMTGGDHWCANGGNIYSALLGKYGVSWMKLHLDQDTRYAPFLCGPNHAAQTLISEYRGNCPY
In the case of B1, the “Proxy for plastic degradation” value stood at 0% with pNPB (pH 3); 0% in the data set with pNPB (pH 4); 0% in the data set with pNPB (pH 5); 4% with pNPB (pH 6); 63% in the data set with pNPB (pH 7, 17 °C); 70% in the data set with pNPB (pH 7, 22 °C). The “Proxy for plastic degradation” value with pNPB (pH 7, 28 °C) was found to be 71%; with pNPB (pH 7, 37 °C), 77%; with pNPB (pH 7, 42 °C), 76%; with pNPB (pH 7, 55 °C) it was 82%; with pNPB (pH 7, 60 °C) it was 100%; in the data set with pNPB (pH 7, 70 °C) it was 100%. In addition, the “Proxy for plastic degradation” value was 81% with pNPB (pH 7, 80 °C); 82% with pNPB (pH 7, 90 °C); 100% in the data set with pNPB (pH 8); 99% in the data set with pNPB (pH 9.2); 90% in the data set with pNPB (pH 10.2); 900 µM in the data set with PET.

B2: unnamed (protein)
chain: MNVLTKCKLALGIIAIFFSLPSFAVPCSDCSNGFERGQVPRVDQLESSRGPYSVKTINVSRLARGFGGGTIHYSTESGGQQGIIAVVPGYVSLEGSIKWWGPRLASWGFTVITIDTNTIYDQPDSRASQLSAAIDYVIDKGNDRSSPIYGLVDPNRVGVIGWSMGGGGSLKLATDRKIDAVIPQAPWYLGLSRFSSITSPTMIIACQADVVAPVSVHASRFYNQIPGTTPKAYFEIALGSHFCANTGYPSEDILGRNGVAWMKRFIDKDERYTQFLCGQNFDSSLRVSEYRDNCSYY
Regarding B2, the “Proxy for plastic degradation” value with pNPB (pH 3) was found to be 0%; with pNPB (pH 4) it was 0%; in the data set with pNPB (pH 5) it was 0%; with pNPB (pH 6) it was 11%; with pNPB (pH 7, 17 °C) it was 60%; with pNPB (pH 7, 22 °C) it was 60%. For the same protein, the “Proxy for plastic degradation” value with pNPB (pH 7, 28 °C) was determined as 62%; in the data set with pNPB (pH 7, 37 °C), 72%; in the data set with pNPB (pH 7, 42 °C) it was 82%; in the data set with pNPB (pH 7, 55 °C) it was 100%; in the data set with pNPB (pH 7, 60 °C), 81%; with pNPB (pH 7, 70 °C), 81%. Further, the “Proxy for plastic degradation” value with pNPB (pH 7, 80 °C) was found to be 55%; with pNPB (pH 7, 90 °C) it was 35%; with pNPB (pH 8) it was 100%; with pNPB (pH 9.2), 76%; with pNPB (pH 10.2), 48%.
